Assay results from patent US7232671.
Positions count from the first letter of the chain named.

B1: full-length recombinant S1 with the Arg->Lys mutation at residue 9 (protein)
chain: DDPPATVYKYDSRPPEDVFQNGFTAWGNNDNVLDHLTGRSCQVGSSNSAFVSTSSSRRYTEVYLEHRMQEAVEAERAGRGTGHFIGYIYEVRADNNFYGAASSYFEYVDTYGDNAGRILAGALATYQSEYLAHRRIPPENIRRVTRVYHNGITGETTTTEYSNARYVSQHTRANPNPYTSRRSVASIVGTLVRMAPVIGACMARQAESSEAMAAWSERAGEAMVLVYYESIAYS
B2: S1 mutant 6-1 (Asp11->Pro, Pro14->Asp in S1/6A) (protein)
chain: B1 chain with D1M, D2V, K9R, D11P, P14D
B3: S1 mutant 4-1 (Arg9->Lys in S1/6A) (protein)
chain: B1 chain with D1M, D2V
B4: S1 mutant 1-1 (Arg13->Lys in S1/6A) (protein)
chain: B1 chain with D1M, D2V, K9R, R13K
B5: S1 mutant 5-1 (Tyr8->Phe in S1/6A) (protein)
chain: B1 chain with D1M, D2V, Y8F, K9R
B6: S1 mutant 8-1 (Tyr8->Leu, Arg9->Glu in S1/6A) (protein)
chain: B1 chain with D1M, D2V, Y8L, K9E
B7: S1 mutant 2-2 (Ser12->Gly in S1/6A) (protein)
chain: B1 chain with D1M, D2V, K9R, S12G
B8: S1 mutant 7-2 (Arg9->Asn, Ser12->Gly in S1/6A) (protein)
chain: B1 chain with D1M, D2V, K9N, S12G
B9: S1/6A (recombinant pertussis toxin S1 analog, parent construction 6A) (protein)
chain: B1 chain with D1M, D2V, K9R
B10: S1 mutant 3-1 (Asp11->Glu in S1/6A) (protein)
chain: B1 chain with D1M, D2V, K9R, D11E

Biological target: purified bovine transducin (alpha subunit is the ADP-ribose acceptor), P04695

Row | Protein | transferase activity | ADP-ribosyltransferase activity (cpm)
1 | B1 | transferase activity was reduced by a factor of approximately 1000 | 
2 | B2 |  | 764 cpm
3 | B3 |  | 754 cpm
4 | B4 |  | 7390 ± 1370 cpm
5 | B5 |  | 26400 ± 1320 cpm
6 | B6 |  | 926 cpm
7 | B7 |  | 22300 ± 2100 cpm
8 | B8 |  | 753 cpm
9 | B9 |  | 23400 ± 950 cpm
10 | B10 |  | 13500 ± 1600 cpm
